The supplement of paper PMC10065799, “High-throughput profiling of sequence recognition by tyrosine kinases and SH2 domains using bacterial peptide display” (eLife, 2023)

What was measured:
EPHB1 = EPHB1 (UniProt P54762); experiment: phosphorylation enrichment, bacterial display (enrichment ratio); higher = better substrate or ligand; peptides without Tyr show the background
Jak2 = Jak2 (UniProt O60674); experiment: as above
Fes = Fes (UniProt P07332); experiment: as above
FGFR3 = FGFR3 (UniProt P22607); experiment: as above
Chain of FGFR3 (P22607 whole entry, looked up): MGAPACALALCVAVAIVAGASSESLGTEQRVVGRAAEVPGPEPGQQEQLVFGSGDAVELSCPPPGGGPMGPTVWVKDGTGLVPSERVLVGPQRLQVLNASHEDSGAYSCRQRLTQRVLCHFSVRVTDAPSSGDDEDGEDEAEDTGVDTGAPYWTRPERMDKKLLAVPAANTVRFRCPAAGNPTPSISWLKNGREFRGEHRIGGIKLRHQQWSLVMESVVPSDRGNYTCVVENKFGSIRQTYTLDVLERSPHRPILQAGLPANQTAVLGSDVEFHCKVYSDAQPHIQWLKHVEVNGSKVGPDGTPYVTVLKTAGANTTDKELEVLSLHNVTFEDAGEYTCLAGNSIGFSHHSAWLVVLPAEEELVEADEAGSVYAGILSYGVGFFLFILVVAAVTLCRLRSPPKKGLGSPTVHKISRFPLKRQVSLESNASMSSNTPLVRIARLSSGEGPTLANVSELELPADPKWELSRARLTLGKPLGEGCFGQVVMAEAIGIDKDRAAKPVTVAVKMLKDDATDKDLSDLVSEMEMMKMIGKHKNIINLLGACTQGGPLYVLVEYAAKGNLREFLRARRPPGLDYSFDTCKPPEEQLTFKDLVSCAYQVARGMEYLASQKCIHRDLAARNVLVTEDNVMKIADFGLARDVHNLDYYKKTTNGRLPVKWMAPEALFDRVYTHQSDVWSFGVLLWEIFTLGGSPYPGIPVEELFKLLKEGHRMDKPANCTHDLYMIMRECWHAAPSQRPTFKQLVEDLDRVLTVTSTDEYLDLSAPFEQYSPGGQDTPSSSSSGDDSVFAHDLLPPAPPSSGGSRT

EPHB2 = EPHB2 (UniProt P29323); experiment: as above
Chain of EPHB2 (P29323 whole entry, looked up): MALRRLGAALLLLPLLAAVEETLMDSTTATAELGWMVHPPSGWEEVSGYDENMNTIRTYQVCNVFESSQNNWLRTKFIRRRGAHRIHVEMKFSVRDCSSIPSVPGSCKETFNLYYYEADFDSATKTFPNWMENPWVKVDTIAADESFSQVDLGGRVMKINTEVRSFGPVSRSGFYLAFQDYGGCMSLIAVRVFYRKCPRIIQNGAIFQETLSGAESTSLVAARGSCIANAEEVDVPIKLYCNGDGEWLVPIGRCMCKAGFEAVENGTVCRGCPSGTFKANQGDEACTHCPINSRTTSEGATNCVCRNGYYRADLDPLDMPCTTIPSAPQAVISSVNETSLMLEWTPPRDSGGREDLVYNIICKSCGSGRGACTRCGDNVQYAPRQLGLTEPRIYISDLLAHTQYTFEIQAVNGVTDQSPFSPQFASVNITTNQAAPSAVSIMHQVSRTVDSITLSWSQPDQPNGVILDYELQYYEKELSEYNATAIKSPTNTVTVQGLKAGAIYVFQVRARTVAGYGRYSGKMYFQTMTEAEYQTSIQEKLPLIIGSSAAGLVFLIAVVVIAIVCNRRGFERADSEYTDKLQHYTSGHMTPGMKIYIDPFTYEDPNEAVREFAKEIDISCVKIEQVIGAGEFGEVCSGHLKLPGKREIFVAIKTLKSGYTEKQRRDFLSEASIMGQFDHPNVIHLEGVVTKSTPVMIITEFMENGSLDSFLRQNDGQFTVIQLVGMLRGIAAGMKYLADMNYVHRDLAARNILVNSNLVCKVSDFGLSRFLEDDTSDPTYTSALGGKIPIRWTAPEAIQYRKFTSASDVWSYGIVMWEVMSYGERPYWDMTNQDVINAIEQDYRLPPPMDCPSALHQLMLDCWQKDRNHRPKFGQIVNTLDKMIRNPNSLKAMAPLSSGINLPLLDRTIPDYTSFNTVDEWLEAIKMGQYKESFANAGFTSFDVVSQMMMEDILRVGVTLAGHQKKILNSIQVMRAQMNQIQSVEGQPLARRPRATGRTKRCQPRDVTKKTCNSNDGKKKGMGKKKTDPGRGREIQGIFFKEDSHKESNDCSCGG

FGFR1 = FGFR1 (UniProt P11362); experiment: as above
Fyn = Fyn (UniProt P06241); experiment: as above
Hck = Hck (UniProt P08631); experiment: as above
c-Abl (mouse) = experiment: as above
MERTK = MERTK (UniProt Q12866); experiment: as above
c-Src = experiment: as above
AncSZ = experiment: as above
Fer (mouse) = experiment: as above
SHP2-C SH2 = experiment: SH2 binding enrichment of the phosphorylated peptide, bacterial display (enrichment ratio); higher = better substrate or ligand; peptides without Tyr show the background
Grb2 SH2 = Grb2 SH2 (UniProt P62993); experiment: as above
Chain of Grb2 SH2 (P62993 whole entry, looked up): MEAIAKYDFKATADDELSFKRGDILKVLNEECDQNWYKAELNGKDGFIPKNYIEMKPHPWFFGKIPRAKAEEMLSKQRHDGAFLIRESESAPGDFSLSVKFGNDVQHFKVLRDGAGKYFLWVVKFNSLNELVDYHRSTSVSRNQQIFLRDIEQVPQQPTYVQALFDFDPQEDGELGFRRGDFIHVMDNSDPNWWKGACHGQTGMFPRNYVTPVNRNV

c-Src SH2 = experiment: as above
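Wherever SH2 binding enrichment of the phosphorylated peptide, bacterial display is given: peptide library displayed on the E. coli surface as eCPX fusions, selected cells deep-sequenced, score is each peptide's frequency after selection divided by its frequency in the input.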
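Wherever phosphorylation enrichment, bacterial display is given: 11-residue human phosphosite peptides and single-mutation variants displayed on the E. coli surface, counted by deep sequencing, each peptide's frequency after selection divided by its frequency in the unselected input library; frequency after pTyr selection over input frequency; kinase dosed for 20-30% of maximal phosphorylation in three min.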

Chain of Fes (P07332 whole entry, looked up): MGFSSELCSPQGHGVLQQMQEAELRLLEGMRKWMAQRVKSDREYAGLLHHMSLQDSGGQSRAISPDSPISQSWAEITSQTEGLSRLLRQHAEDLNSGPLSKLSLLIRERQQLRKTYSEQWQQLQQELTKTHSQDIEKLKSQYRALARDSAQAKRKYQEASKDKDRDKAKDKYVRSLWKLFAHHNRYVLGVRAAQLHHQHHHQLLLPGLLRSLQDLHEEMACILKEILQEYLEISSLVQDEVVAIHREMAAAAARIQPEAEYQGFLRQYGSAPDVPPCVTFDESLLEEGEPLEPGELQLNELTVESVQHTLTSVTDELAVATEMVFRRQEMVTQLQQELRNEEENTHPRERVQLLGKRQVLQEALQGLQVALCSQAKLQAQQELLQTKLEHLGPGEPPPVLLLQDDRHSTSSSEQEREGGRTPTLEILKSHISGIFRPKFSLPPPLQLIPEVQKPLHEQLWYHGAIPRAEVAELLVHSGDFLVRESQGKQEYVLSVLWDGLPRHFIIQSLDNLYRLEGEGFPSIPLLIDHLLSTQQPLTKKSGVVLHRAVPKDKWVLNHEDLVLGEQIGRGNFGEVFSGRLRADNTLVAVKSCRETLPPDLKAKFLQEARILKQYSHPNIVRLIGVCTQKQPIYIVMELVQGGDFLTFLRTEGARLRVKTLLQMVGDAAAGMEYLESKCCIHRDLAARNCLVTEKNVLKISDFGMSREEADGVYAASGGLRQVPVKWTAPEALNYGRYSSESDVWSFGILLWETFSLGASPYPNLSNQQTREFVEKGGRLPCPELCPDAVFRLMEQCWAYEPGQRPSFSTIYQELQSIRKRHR
Chain of EPHB1 (P54762 whole entry, looked up): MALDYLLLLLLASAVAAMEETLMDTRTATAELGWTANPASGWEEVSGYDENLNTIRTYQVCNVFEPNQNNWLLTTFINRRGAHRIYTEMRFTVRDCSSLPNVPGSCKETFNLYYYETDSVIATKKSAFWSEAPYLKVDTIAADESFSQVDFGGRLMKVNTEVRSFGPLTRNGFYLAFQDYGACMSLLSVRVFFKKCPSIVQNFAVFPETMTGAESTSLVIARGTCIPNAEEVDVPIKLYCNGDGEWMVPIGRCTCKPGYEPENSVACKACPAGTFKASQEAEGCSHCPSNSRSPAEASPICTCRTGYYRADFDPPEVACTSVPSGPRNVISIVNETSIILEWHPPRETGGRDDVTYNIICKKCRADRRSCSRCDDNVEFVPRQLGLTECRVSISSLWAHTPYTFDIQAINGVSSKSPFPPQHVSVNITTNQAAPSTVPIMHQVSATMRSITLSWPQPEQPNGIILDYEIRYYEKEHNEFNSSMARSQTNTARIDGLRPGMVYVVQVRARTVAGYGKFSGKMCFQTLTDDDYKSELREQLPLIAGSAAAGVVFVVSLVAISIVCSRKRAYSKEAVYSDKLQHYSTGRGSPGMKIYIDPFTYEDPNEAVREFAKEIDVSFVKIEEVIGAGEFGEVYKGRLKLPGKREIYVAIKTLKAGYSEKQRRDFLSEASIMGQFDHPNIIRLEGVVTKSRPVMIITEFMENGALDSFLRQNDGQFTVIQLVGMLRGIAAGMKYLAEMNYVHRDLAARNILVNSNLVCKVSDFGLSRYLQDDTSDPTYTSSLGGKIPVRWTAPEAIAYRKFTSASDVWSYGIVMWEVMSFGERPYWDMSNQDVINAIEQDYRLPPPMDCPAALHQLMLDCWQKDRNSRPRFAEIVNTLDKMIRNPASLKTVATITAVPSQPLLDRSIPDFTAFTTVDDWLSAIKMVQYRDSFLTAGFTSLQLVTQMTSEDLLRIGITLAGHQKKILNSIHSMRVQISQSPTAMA
Chain of Jak2 (O60674 whole entry, looked up): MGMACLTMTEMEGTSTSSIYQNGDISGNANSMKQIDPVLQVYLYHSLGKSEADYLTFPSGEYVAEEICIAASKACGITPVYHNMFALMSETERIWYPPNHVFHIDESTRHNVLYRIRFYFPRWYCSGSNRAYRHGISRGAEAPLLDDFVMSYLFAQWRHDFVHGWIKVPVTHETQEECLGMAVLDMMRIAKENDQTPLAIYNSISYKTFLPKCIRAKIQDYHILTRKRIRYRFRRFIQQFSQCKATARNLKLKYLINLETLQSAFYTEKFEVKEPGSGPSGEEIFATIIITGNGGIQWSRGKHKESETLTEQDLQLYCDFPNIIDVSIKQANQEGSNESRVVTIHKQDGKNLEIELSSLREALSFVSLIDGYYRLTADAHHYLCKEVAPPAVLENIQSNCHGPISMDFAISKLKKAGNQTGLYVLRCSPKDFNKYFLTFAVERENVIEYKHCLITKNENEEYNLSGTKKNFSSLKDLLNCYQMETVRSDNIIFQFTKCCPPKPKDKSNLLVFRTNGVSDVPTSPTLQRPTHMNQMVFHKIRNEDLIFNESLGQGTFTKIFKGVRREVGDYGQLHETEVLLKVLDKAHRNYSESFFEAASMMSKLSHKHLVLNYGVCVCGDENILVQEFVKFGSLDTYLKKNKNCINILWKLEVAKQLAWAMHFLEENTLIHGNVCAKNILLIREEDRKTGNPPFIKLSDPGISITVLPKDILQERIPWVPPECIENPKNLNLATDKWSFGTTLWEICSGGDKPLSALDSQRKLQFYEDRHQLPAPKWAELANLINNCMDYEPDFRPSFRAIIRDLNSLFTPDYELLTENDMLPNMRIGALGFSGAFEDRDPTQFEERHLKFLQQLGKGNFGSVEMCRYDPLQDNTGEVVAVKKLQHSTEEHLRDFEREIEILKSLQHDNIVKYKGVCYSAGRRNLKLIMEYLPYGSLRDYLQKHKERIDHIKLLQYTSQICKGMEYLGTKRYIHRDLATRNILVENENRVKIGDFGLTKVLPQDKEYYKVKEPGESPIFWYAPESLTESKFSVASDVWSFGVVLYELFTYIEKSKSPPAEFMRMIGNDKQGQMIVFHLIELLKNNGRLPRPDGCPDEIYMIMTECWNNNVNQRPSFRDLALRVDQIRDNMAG

| Sequence | phosphorylation enrichment (EPHB1) | phosphorylation enrichment (Jak2) | phosphorylation enrichment (Fes) | phosphorylation enrichment (FGFR3) | phosphorylation enrichment (EPHB2) | phosphorylation enrichment (FGFR1) | phosphorylation enrichment (Fyn) | phosphorylation enrichment (Hck) | phosphorylation enrichment (c-Abl (mouse)) | phosphorylation enrichment (MERTK) | phosphorylation enrichment (c-Src) | phosphorylation enrichment (AncSZ) | phosphorylation enrichment (Fer (mouse)) | SH2 binding enrichment (SHP2-C SH2) | SH2 binding enrichment (Grb2 SH2) | SH2 binding enrichment (c-Src SH2) |
| --- | --- | --- | --- | --- | --- | --- | --- | --- | --- | --- | --- | --- | --- | --- | --- | --- |
| SSQTIYQRVEG [TFR2_Y23_V22I] | 1.5 | 0.525 | 0.716 | 0.602 | 1.41 | 0.562 | 0.771 | 2.71 | 0.814 | 2.74 | 1.6 | 0.756 | 1.24 | 0.898 | 0.812 | 1.39 |
| VPHECYAKVFD [ALB_Y394_D389V] | 0.647 | 0.928 | 1.22 | 0.727 | 0.716 | 0.619 | 0.564 | 0.572 | 0.945 | 0.497 | 0.561 | 1.07 | 0.542 | 1.55 | 0.887 | 2.33 |
| TYGVAYRAKDK [CDK11B_Y453_V452A] | 0.357 | 0.578 | 0.807 | 0.537 | 0.592 | 0.791 | 0.812 | 1.15 | 0.567 | 0.621 | 0.829 | 0.712 | 0.38 | 0.882 | 0.881 | 0.48 |
| RIVTTYIRERE [DNM2_Y463] | 0.477 | 0.795 | 1.06 | 0.682 | 0.75 | 0.616 | 0.811 | 0.874 | 0.741 | 0.758 | 0.499 | 1.12 | 0.649 | 0.655 | 0.71 | 0.518 |
| AAVPAYDKIQV [STXBP2_Y401_R405Q] | 0.793 | 1.06 | 1.43 | 0.666 | 0.417 | 0.66 | 0.612 | 1.09 | 0.96 | 0.688 | 0.593 | 0.92 | 5.58 | 0.546 | 0.759 | 6.48 |
| PGVDIYVSPNM [PADI3_Y51_I52V] | 1.17 | 1.24 | 1.71 | 0.781 | 1.46 | 0.809 | 1.52 | 2.76 | 2.3 | 0.629 | 0.885 | 1.37 | 0.708 | 0.555 | 0.804 | 0.524 |
| AKIDGYIISFR | 0.575 | 1.06 | 1.13 | 0.654 | 0.412 | 0.472 | 0.412 | 0.365 | 0.559 | 0.37 | 0.315 | 1.1 | 0.386 | 0.547 | 0.936 | 0.576 |
| PEQAAYQKVVA [HBB_Y131_V127E] | 0.613 | 1.08 | 1.07 | 0.524 | 0.811 | 0.519 | 0.462 | 0.561 | 1 | 0.483 | 0.472 | 0.591 | 0.681 | 0.497 | 0.782 | 0.669 |
| KVALVYGQMNQ [ATP5F1B_Y269_E274Q] | 0.496 | 0.841 | 1.27 | 0.634 | 0.641 | 0.424 | 2.16 | 1.78 | 0.829 | 0.425 | 3.17 | 0.726 | 0.506 | 0.636 | 0.703 | 0.434 |
| NHRNQYQALKT [CLSPN_Y887_P892T] | 0.422 | 0.48 | 0.656 | 0.439 | 0.43 | 0.503 | 0.451 | 0.506 | 0.753 | 0.4 | 0.364 | 0.536 | 0.499 | 1 | 0.994 | 1.17 |
| RQRTAYFSLDT [CDH1_Y68] | 0.426 | 0.691 | 0.767 | 0.504 | 0.293 | 0.586 | 0.38 | 0.357 | 0.752 | 0.535 | 0.533 | 0.669 | 0.414 | 11.3 | 0.928 | 1.74 |
| EYRFIYMAVQH [PTPN11_Y515_Q510E] | 1.96 | 1.26 | 1.34 | 1.71 | 1.02 | 2.02 | 4.15 | 4.57 | 2.02 | 1.29 | 3.46 | 1.39 | 3.17 | 0.765 | 0.831 | 0.556 |
| AEMTGYVVTRW [MAPK13_Y182] | 0.636 | 1.34 | 1.3 | 0.834 | 0.586 | 0.526 | 0.468 | 0.467 | 0.895 | 0.372 | 0.486 | 1.17 | 0.499 | 0.586 | 0.845 | 0.47 |
| LTAEVYFPSIK [C5orf64_Y60] | 0.966 | 0.996 | 2.04 | 1.88 | 0.906 | 0.866 | 1.02 | 1.06 | 1.64 | 0.648 | 0.75 | 1.78 | 0.963 | 0.708 | 0.763 | 0.453 |
